Experiment [1] concerns the target T1, circulating APOL1 in normal human serum (human, UniProt O14791 28-398).
T1 sequence (looked up): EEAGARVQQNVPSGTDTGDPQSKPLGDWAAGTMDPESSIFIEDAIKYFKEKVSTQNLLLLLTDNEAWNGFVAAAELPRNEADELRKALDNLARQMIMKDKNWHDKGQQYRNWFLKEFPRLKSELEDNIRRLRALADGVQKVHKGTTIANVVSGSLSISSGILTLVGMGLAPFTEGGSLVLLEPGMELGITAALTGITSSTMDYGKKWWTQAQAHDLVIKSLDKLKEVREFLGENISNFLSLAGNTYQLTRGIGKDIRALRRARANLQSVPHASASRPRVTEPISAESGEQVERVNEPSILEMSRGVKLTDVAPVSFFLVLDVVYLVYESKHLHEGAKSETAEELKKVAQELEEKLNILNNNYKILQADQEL
In words: cell-based or functional assay.

Experiment [2] deals with T2, gD-SRA-ID-GPI (construct e) (human, UniProt O14791 305-398, C-terminal GPI anchor).
T2 sequence: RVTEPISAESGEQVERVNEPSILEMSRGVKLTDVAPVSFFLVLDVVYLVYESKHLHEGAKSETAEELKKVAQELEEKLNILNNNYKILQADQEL
In words: flow cytometry, live CHO cells expressing the construct, 5 µg/ml. As for the experimental part: Stably transfected live (not fixed or permeabilized) CHO cells expressing the gD-iAPOL1-GPI constructs indicated in FIGS. 1A-1E after induction with 5 μg/ml dox for 48 h, showing differential antibody binding at 5 μg/ml. […] White histograms are Alexa488 anti-mouse or anti-rabbit secondaries only; grey histograms are the anti-APOL1 signals. A representative histogram for each category is shown: 3.7D6 for PFD; 3.3A8 for C-terminus of MAD, 3.5H9 for N-terminus of MAD; 3.1C1 for SRA-ID; 3.2D4 for multi-domain; 3.3F7 for conformational and 3.5B10 for FACS-negative (FACS-ve). The prefix 3 in the name of the antibodies denotes murine monoclonals from Method #3 (as shown in Example 1 below); other antibodies (not illustrated here) starting with the number 4 are murine monoclonals derived from mice additionally boosted with SRA-ID protein; and prefix 5-named antibodies are rabbit monoclonals from Method #5 (Table 2A; and Example 2). […] The Sigma polyclonal (HPA018885, raised to aa 263-387) and the Epitomics rabbit monoclonal (EPR2907(2), raised to an undisclosed peptide) are SRA-ID binders. […]
Cells were harvested with 5 mM EDTA in PBS, washed once with growth media and twice with PBS. […] Signals were read in a FACSCalibur3 (Becton Dickinson), with the exception of FIG. 8A and FIG. 14, which used a FACSCelesta, and data was analyzed using FlowJo v8.4.5.

For the next experiment, the target named is T3, APOL6-myc-FLAG (human, UniProt Q9BWW8 1-343).
T3 construct: whole, on cells; In fixed, permeabilized transfected COS cells; untagged APOL6 in the western blots; not shown: C-terminal myc-FLAG tag
T3 sequence (looked up): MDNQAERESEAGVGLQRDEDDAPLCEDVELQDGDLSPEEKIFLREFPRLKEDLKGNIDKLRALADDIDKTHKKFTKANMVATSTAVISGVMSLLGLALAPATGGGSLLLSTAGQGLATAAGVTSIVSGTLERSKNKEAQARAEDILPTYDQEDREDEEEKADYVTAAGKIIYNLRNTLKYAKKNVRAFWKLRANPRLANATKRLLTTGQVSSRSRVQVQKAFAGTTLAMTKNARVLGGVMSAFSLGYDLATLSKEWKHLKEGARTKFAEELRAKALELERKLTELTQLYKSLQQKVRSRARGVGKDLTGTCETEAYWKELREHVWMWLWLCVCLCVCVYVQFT
The experiment can be described thus: immunofluorescence on transfected COS cells; grade (also no cross-reaction by western blot). The source says:
COS cells were transfected as in FIG. 31A except APOL1 and APOL2 were also C-terminally myc-FLAG tagged. Overlays of APOL with epitope tags: either mouse anti-FLAG-M2 or mouse anti-myc 9E10 for anti-APOL1 rabmabs; or rabbit anti-Myc 71D10 in conjunction with mouse anti-APOL1. Signals indicate the two antibodies overlap (i.e. anti-APOL1 cross-reacts with that APOL); signals (epitope tag only) indicate no cross-reactivity. Alexa647 anti-rabbit or mouse were used for the tags to rule out the possibility that any colocalization was a bleed-through artifact. Sparsely transfected areas were imaged to permit evaluation of background staining in adjacent untransfected cells—DAPI nuclear staining identifies both untransfected and transfected cell nuclei. […] Note that none of the antibodies cross-reacted with the more distantly related APOL6. *, APOL2-myc-FLAG is presumably misfolded, since it is not as cross-reactive as untagged APOL2 (compare FIG. 31A) with several antibodies. Commercial antibodies are Sigma HPA018885, Epitomics EPR2907 (2) (Epito) and Proteintech 11486-2-AP (Ptech).
Cells were plated on LabTekII (Nalge Nunc 154534) slides and fixed at 70-100% confluency. For mAb screening, cells were fixed/permeabilized for 5 min in −20° C. methanol (EMD MX0485-6). […]

B1: antibody 3.7D6 (antibody, V domains shown)
VH: QIQLVQSGPDLKKPGETVKISCRTSGYAFTNYGVNWVKQAPGKGLKWMGWINTNTGQTTYAEEFRGRFAISLETSASTAFLTISNLKNEDSATYFCARLIYDGDYISSDFWGQGTTLTVSS
VL: DIQMTQSPDSLSASVGETVTITCGASENIYGALNWYQRKQGKSPQLLIYGATNLADGMSSRFSGSRSGRQYSLKISSLHPDDVATYYCQNALSMPYTFGGGTKLEIKR
notes: Mouse mAb, cloned as murine IgG2a LALAPG; those versions are not written separately; also called PFD antibody 3.7D6
In the case of B1, the “IC50 of blocking of serum APOL1-mediated trypanolysis (Alamar Blue)” value in experiment [1] was 0.5 nM.

B2: antibody 3.1C1 (antibody, V domains shown)
VH: QVQLQQSGPELVKPGASVRISCKASGYTFTNYFIHWVKQRPGQGLEWIGWINPGNLNTKYTEEFKGKATLTADKSSSTAYIQLNSLTSEDSAVYFCVNGNPFVYWGQGTLVTVSA
VL: DIVMTQSPSSLTVIAGEKVTLNCKSSQSLLNSGNQKKYLTWLQQKPGQPPKLLIYWTSTRDSGVPDRFTGSGSGTDFTLTISSVQAEDLAVYYCQNDYSYPLTFGAGTKLEIKR
notes: Mouse mAb, cloned as murine IgG2a LALAPG; not written separately; also called SRA-ID mAb 3.1C1
On to B2, for which, in experiment [2], the binding result is given as “binds”.

B3: antibody 4.12E5 (antibody, V domains shown)
VH: EVQLQQSGPELVKTGASVKISCKASGYSFTGYFMHWVKQSHGKSLEWIGYISCYNGASVYNQRFKGKATFTIDTSSSTAYMQFNSLTSEDSAVYYCARDVLRYPRYAVDYWGQGTSVTVSS
VL: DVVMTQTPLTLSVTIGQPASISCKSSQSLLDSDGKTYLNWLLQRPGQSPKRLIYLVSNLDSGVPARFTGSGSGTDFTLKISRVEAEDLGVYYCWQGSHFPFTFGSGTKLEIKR
notes: Mouse mAb, cloned as murine IgG2a LALAPG
Take B3: the binding result in the experiment with APOL6-myc-FLAG is recorded as “no binding (tested: 1 µg/ml)”.

These data come from US20230071609A1 (Genentech, published 2023).
